Measured values from article PMC9456514, “Three-Dimensional Envelope and Subunit Interactions of the Plastid-Encoded RNA Polymerase from Sinapis alba” (International Journal of Molecular Sciences, 2022).

Biological target: T1, β subunit of the plastid-encoded RNA polymerase (SaRpoB) (Sinapis alba (endogenous in cotyledon …, UniProt P46818 1-1078))
T1 construct: RNA polymerase β subunit, product of the plastid gene rpoB, Sinapis alba
T1 sequence (looked up): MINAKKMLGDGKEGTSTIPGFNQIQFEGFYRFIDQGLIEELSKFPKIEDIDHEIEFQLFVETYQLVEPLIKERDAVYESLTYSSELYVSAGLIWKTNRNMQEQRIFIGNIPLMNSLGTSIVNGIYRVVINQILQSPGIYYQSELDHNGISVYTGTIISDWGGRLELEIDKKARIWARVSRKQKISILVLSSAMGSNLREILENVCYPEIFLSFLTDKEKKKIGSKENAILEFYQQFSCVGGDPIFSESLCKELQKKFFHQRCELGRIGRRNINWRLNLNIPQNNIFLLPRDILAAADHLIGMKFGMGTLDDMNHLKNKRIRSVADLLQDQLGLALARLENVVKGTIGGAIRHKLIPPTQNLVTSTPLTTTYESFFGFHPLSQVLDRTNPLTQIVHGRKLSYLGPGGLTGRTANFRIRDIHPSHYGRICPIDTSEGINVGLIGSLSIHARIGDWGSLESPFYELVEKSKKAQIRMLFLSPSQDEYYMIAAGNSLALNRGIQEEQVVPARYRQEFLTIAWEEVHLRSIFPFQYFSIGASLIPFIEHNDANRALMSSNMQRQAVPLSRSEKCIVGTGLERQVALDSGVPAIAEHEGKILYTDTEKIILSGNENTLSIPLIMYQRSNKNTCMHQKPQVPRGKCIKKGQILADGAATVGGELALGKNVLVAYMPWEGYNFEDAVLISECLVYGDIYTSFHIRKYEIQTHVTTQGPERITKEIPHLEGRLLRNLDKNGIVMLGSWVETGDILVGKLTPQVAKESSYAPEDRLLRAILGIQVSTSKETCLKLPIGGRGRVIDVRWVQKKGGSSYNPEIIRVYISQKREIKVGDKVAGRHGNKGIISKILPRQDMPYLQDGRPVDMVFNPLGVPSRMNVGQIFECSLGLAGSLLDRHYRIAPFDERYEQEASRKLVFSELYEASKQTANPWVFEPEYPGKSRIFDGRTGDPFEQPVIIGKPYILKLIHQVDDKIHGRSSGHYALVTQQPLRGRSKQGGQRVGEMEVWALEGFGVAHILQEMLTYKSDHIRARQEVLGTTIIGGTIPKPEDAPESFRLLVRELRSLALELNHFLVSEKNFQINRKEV
Assay: co-purification of the native complex with mass spectrometry; chloroplast lysate of S. alba cotyledons; heparin resin (elution 1.2 M (NH4)2SO4), 35-15% glycerol gradient, Q-Sepharose (0-1 M NaCl), 100-kDa cutoff concentration; three independent preparations; label-free MS, iBAQ values
Conditions: partners not purified

stoichiometry N: ~2
B1: α subunit of the plastid-encoded RNA polymerase (SaRpoA) (natural protein, UniProt Q9XQN8 1-327, looked up)
chain: MVREKVKVSTRTLQWKCVESRRDSKRLYYGRFILSPLMKGQADTIGIAMARALLGEIEGTCITRAKSENIPHDYSNIVGIQESVHEILMNLNEIVLKSNLYGTRNPFICVQGPGYITARDIILPPSVEIVDNTQHIATLTEPINLCIGLKIERNRGYSLKMSNNFEDRSYPIDAVFMPVQNANHSIHSYGNGNEKQEILFIEIWTNGSLTPKEALYEASRNLINLFIPFLHVEEETFYLENNQHQVTLPVFPFHNKLVNLRQKKKELAFQYIFIDQLELPPRIYNCLKKSNIHTLLDLLNNSQEDLIKMEHFHIEDVKKLLDILEKK
notes: RNA polymerase α subunit, product of the plastid gene rpoA, Sinapis alba
